These results are taken from paper PMC2748697.

The assay addresses tubulin (bovine, Cytoskeleton) (bovine) (UniProt Q6B856).

Regarding “GST-tagged full-length Capzb2 (1–271) (from UniProt P47757-2 1-272) (natural protein)”, the reduction of the extent of tubulin polymerization at 0.5, 1 and 10 µM Capzb2 (8%, 16%, 35%; none at 0.1 µM) is 35%.
